Laboratory results from the NTF2 design screens of Basanta et al. (2020).

Experiment: protease stability score; higher = more stable; yeast display proteolysis, trypsin and chymotrypsin;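 further: relative to predicted unfolded state with 0 unfolded-like and 1 meaning tenfold more protease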

| Sequence | protease stability score |
| --- | --- |
| DEEEELARKYTEIYRHFMHTGDEDLNREFADPNTQILQGNKRFHGWKWYLEIVRRLGADHMEIHRVDVQGDKVHNDGRMIVNGKTLHFELIITKIDGRWVLREVRLG | 1.4 |
| DEEEELARRASRKLIELMLTGDEDSLEEMLDPNVKVQIGDKELHGRIAIEIMSRQFKNVRIEVKRLSVQGNYVDLDVRVNINGVWVEQRIQIEKVDGRWTLKENTIV | 2.23 |
| DEEEELIKHHLELHLEAVKTGDEEHLHRNMDPNVRLHVNGQDRHGREDVSTLLREIRLKDFKIHDVDIQGNKMRFDGFILGEINGREHNVHTTIYAEKVDGRWLIRHFEIR | 1.04 |
| DEEEELLKDLLRKWLEAMRTGDWEELERLLDPHVRIHIGDKDIHGRELFIELHERELKRIKNVKIVIDDKHIEFQGDKARVDGKLQEQVGDKEITHRVIIIMRVIDGKFESMEVRYV | 1.08 |
| DEEEELLRKLVEELHKALRTGNEHVLRHLIDPHVRIDIDGRELHGREQFVELWKRLVDELRIHDMKIRSIKTQGDFVHSSTELDLEYGDKKFRLTTELDVRSIDGRVKHVSIRYH | 1.53 |
| DEEEELLRRLIKMLLHLMRTGDEDETANLLDPNVRIEWNGRTFHGREEAKRWLFELLSRVDVVKDIKIHDYDRYGDFVLLDVRLHGEIDGVPTETIFIIIIRKINGRWMIHQIYLE | 1.42 |
| DEEEELLRRMLHLLYHFLKTGDEDTLSRLMDPNYLLIIGDKEHHGREEYRKVMKRADVLEIMHIHDVHFQGDKIHIDGHSRWRVGDKMHETRIEIIAVKFNGRWHFHSIIVR | 0.804 |
| DEEEELLTRTSELFSHNLHTGDEDSLIHLADPHTRIDVDGVQLHGMETWSEQFSRDMHEHGARSEVHYKRREVVGDKAKIHLVLTITYNGRTIIRNIELRMTKIDGVWILRHISYH | 1.26 |
| DEEEELMHRLVELFLKALITGDEETLSHLADPNVRLHIDGRHIHGWQFSVKEWLRESSEIRMELQIRHIHLIGDKVHVHGQLSIHQGNKHIHREVIYDFVIINGRLKSITVEIT | 1.99 |
| DEEEELMRSFLRLWFEAMITGDEHTLKELIDPDVRIEQGDKTHHGWEEFLRKFHKIKNMTIRHVELNHEHVQGDKIDLIITLHGHINGRHEELEVRLHARKVDGRWKMTRIHYQ | 2.66 |
| DEEEELNREALKEFHDDMKTGDERHILENLDPNTRIQFNGRDLHGRENAERFIRELIQKYGATVFNMKRVEVQGDWLHIDGELVIGDKKHRIHIIAVKINGRWTDTELRIK | 1.48 |
| DEEEELNRRLVELMIRWHETGDFDMIEKYMDPDAKLNINGQEIHGMEKITNLFLWRFEFFKGAQYRMNRVRVQGDKASIDGRLNVDGRTHSIEIRIVIINGRNHSIEIHDR | 1.41 |
| DEEEELREESEKFEHRAWETGDWKLLAELMDPHTRFITEDHDFHGRENMEKLLEDDLRRIKNATIRSIIIRRTHEINGRLLLIGIVDVEIDGKRVIRDVKYIKVKINGRWYITTMQVR | 0.796 |
| DEEEELSKIAIRIFLKTLETGDERTLSELMDPHARLVINGREYHGREEASKEWHKWVEHLRVRDIKISSVRINEHELILHEKFEVEVNGRNLKLDVLIIVVKVDGRWVLRTNTIN | 2.68 |
| DEEEELSKIAYHLTEHIWETGDEDLLKELLDPNTQVTQGEWHVHGRESMHRFLRHVRERLGVDQIDVDVKSVRAFNGVVTTHVNLHFNGRTYTMTLFSNKYNGKWTVKSMKIQ | 1.29 |
| DEEEELSKRLVELLLKLLKTGNEEELIKNADPHAKVQIRINGREFIHHGWEAFSHLWRHYIIKFKNIRIHDRHMEIQGDWVHIHSEEQIGDKRIEVEIRIQIINGVQKNVHIDIHEH | 1.47 |
| DEEEELSTEVMEHVLELVLTGDEERLWKLFDPHVRLDIDGKHIIGRELVSKINKDRRRELRIHHVELKRFETQGEKVHSDIRVDGWIDGRRIDTDAHVIVVVVDGRLKSLRIIHH | 1.18 |
| DEEEELTKRFLDIMLHNLKTGNEEEISKMADPNVKLDIGDKENHGRESMSRAWHEELRRLGAKHIDVRSVELQGDKLIIRMRLEVDGRTFEVLIIIIVVDGRLKHIQFKSH | 0.704 |
| DEEEELTKRWIDHLLRLWNTGDEHHFLKMADPHVRIEQGDKEHIGREEMYRWLQQFKNIRLHIDDIDIQGDFLNIDGYINFNGVHREAKVHIRVINGKLHSIIIRIK | 1.3 |
| DEEEELTRLALEWLLKVSKTGDERLFREEFDPNVKLDINGRDFHGREEAVRVWLKFVHDAGFKHIEIERVLSFDGRLHLHGVEHIGDKEVETHILTEKFDGKWVMRSIKIN | 0.301 |
| DEEEELVIHVAHEILHNHLTGDEERWEELADPRTKVEFNGVQNHGREFTNEYRKEFHNRYDHWEIRIRDYRVIDGVAHFDTELIIRQGDKEIRVKVHLEFIIVNGKVSEIRIEVR | 0.607 |
| DEEEELVLRIMHELLKLVLTGDFKRLSELLDPNVRMEIVVGDKHIEEHGRERMSHWILEWLRHARVKEFRIHHLIAYDGQTDSNVRLNVRIGDKEHRFRVIVILQVIDGKIRSLTIIFE | 1.51 |
| DEEEELVREFLHRLKQSHETGDEKMYRENADPDVRIEVNGVTIHGMERATRWASEMRFKHEELRHIEVDENHVHIDGIVKGRINGRDVETKVHFHVRKVNGVWLLKRIKFT | 0.956 |
| DEEEELVRLATEHSLELMRTGDWSHLHKLMDPHALLSVNGREVHGRENAVRLIITILEDLGVKHFHLEHVEVIDGRVNIDGRLHQGDKKLNNEIWLVKINGRWRLKSIHIELK | 1.17 |
| DEEEELWKELSKLIIHEWRTGDEEIFARLFDPNAKMRHLVDGRDDQHVGREKTVHVLLKVLEDLGIKHIKHEHITIQGDWVHMHTTLNVDGREIKVEMHFVVINGKYKSVEERTK | 0.966 |

| Sequence | protease stability score |
| --- | --- |
| DEEEELYRIALEESIRTLKTGDEDRVHELFDPRARIIVNGREFHGRERATKWAFDWIHKVKNMRFELRDFRIQGDKIIIHGKLHVNGQETEIIIIIHKIDGRWLIEQVEVR | 1.4 |
| DEEEEMAHRLVEQHDEFIRTGDERINHELADPHAKVEIGDKEFIGRETFSKLMVEWRTREIRLTHIEVINGQVHLYQDVRVDYNGKEMHQHVRWDSLKINGKWFDHSVHIK | 0.317 |
| DEEEEMAKKILDDLTHLLETGDEEVFRHLADPNVKVDELVNGRKIHRHGRQDWREIFKEMRLRHIHIRRVHVQGDKLHNDIEVDGDFNGRSHRDRTELILVIVDGRLRTIEIHVN | 1.18 |
| DEEEEMIEKIFKHLVEALRTGDWRQLEKLFDPNVRIEIGDKHSVGREEAVKFLEEWRKRADHIEHIDFRNRRSVDGRIEIEGRHLGHIDGRLVNTRVEFEIVIVDGKIEYNRLHVL | 1.58 |
| DEEEEMRRRQTTLFLEAWITGDWDLIQRLLDPHTRVDVNGVEIHGMEEFARWFREKKEKVKNLRSHLTDIELQGEKVILYGIDTVNGKTHKVRVKVDIVDGVIKEVRFDLR | 1.4 |
| DEEEEMSKEATEWFKRVSKTGDEKDLVEFLDPNVLLEIGDKRFHGREVASHWMTRMFHEIRIRHIEEKEFRIYNGRATLHEHLDIEFDGRTSKIHVTVVYIKVNGRWFMESLHIR | 0.808 |
| DEEEEMSKELAELLVKAFVTGDWEEMTSMADPRTRTDVNGKDLHGWDESLRVIEELLRKMGIKHSNIHTVRVQGNWIHIDIRVIVGDKYHEVEIRVLVVNGRLKYLEYRIK | 1.98 |
| DEEEEMVLEMAYLFIHALHTGDEDMIRHLADPNMKVDINGQEHHGRDMSNEWWRREIDQIKNVRVDIDIDELHVIDGVAYVRTTVRYHFDGRTIVYFTTFDLIIVNGKIKSVKWEVE | 1.83 |
| DEEEEMVREVLHRVIHNILTGDEDSVSRMADPHVRVKEIINGKEFTLHGREMMLHMIREWRNRADHVEIHIRRSRVINGRLDSHGLLIIEINGKEIRHDTNLHLYVVDGVIKILTWNIE | 1.45 |
| DEEEENMRIAFKLLIEMHRTGDPEEHLELFDPHVRSIIGDKEYHGWEEYMRWIQHARVKELKLDSHRVYNGRVELDVRINVDVNGREIDREVHIIAEKVNGRWHFKSVRVL | 1.41 |
| DEEEENSRRAIEIVLQHMETGDEKTLEELVDPHVKLHYGDKTSHGRHHVAHLIMRLGVKHSRVEHVDSQGDKVFFFTRMRIGDKHFDTRVILLKVDGKWQIHELKFD | 1.96 |
| DEEEEQAHTMLEIFLHNLVTGNEETINTLMDPHARTDIDGKIFHGRDWLEHFLRRFPHVRLHLKHIEWRVINGVAHLHLEMHVNVDGRHFDVRFHIHNEKINGRWFSHSFKYSIE | 1.44 |
| DEEEEQARDLTKLLEKLWATGDEHTLLRLLDPNARNIVGDKEHHGREILLKFWRHLGVSRVESKIEDVKVFDGRVYIKGRVRFDGVELETEIESEKVNGQWHIRIIRMR | 1.79 |
| DEEEEQARHMVMLFLRYILTGDEKHFQTLADPDVRTDVNGKEHHGREEATRTLRLYIELMGADHIQLKDWEIEVQGEFVRLRLHVQVDVGDKHLRTDLHFEIKKVNGQWVVHQVVIKTL | 2.19 |
| DEEEEQTHHMFKRILEVLRTGDERMLLDLADPHVRLEVGDKHMIGMDSLVHFNARIKNMRIRLRSIDFQGDYAHINTELEFDGRNHHITIVVLKVDGKWIIRSQHVK | 1.46 |
| DEEEERARHWIERFVRAVLTGDWEHILRNADPNVRLHVGDKEIHGRERMIETFREFWERYPGVRIKIHQVEIQGEKSHLDGEIRFDGRRFRVEFEVVIINGKIHELHIRIH | 2.62 |
| DEEEERARRDLFIWAHAVKTGDEKRYKELFDPNDKLDINGQEIHGMESVVKLIRHIRIEDIHLHLHDIRLIGDKLHVDGQIRQHTHVGDKRVHDTINVNDIVHKVNGQWHWKSIIYH | 1.03 |
| DEEEEREKELRERWEHFLKTGDWKKIEELADPHVRLDVGDKELVGRELFVEFIRRLLEHLGFNVFRINHIDLQGEKINMDVEREIGDKSTRVELHILKIDGQWILKRVIIN | 1.82 |
| DEEEERFEEVWRRLARALETGDEETVRHLIDPNVLIIIGDKTIHGWESLSTYLKEIRLTISDMRVRSRSEVNGKLEFDTHTHRVVFINGVELHVEERIHITMLKIDGRWHIHSIEFR | 1.45 |
| DEEEERLEELSKLLLEMVLTGNWDETLELADPHALIEIGDKRFHGWEHWVKLYLRIKNVRFELRIDSVRPIGDKAEIDGHVIIRIGDKEKEFDLRVEIDVVDGRLKENSIRRR | 1.35 |
| DEEEERLEKLAEILIHYHLTGDFEILLEYADPNVQTEFDGVEIHGMELSNKFLEKSNKKLGVDHRHYKSYSAYGNKVTVLSEIHVNGRKMEVRFRWDVVNGKIQTLHIHFD | 1.05 |
| DEEEERMDRAYDHWRENILTGDWKRLRELADPHAKMDINGVDIHGMETFNKILSEELKEIRLKDVHIDDKHVVDGQLHVHGKRETLFNGKNTWIKTHIHLVIIDGRFHSYTVHIE | 0.281 |
| DEEEERMQEKLHRYLHDLVTGDEEEFHKYADPHVKTRVGDKILHGREKAREFWHEIRIKDIKLDHKDIQGDFVRLHVRVHGRINGQDIDFRVEIFFRKINGRWIIESQEIN | 0.816 |
| DEEEERRRHLIDVLLRLWHTGDEESFTNLADPHVRIHVGDKIFHGREAASRWMHNVREHWRLHHERDHDVKIQGEKVVRDGHVDIEFNGVRVRTRVEIILTVVNGQIKLIEIRIL | 1.26 |
| DEEEERTERVSQLFWELFLTGDEEELFKLVDPHVRSHVGDKDYHGRETAHEIWHRIKNVRMRLDHVELRIVNGRADLHVRGKLIIGDKKVELNIEILVVKVNGQWLVERIRVETK | 1.31 |
